Target: prostate-specific antigen (PSA) (UniProt P07288 25-261)
Experiment: photoelectrochemical aptasensor (aptamer immobilized on TTPA-CONs/Ti3C2Tx/GCE); 10 ng/mL PSA; photocurrent falls from 3.6 to 1.8 uA after PSA; BSA-blocked electrode; PSA incubated 120 min at 4 °C on BSA-blocked aptamer electrode; photocurrent in 0.1 M phosphate buffer pH 7.4, room temperature, no bias (Section 2.3 states Tris-HCl pH 7.4 as optimum)
Conditions: protein: commercial

Sequence of prostate-specific antigen (PSA) (P07288 25-261): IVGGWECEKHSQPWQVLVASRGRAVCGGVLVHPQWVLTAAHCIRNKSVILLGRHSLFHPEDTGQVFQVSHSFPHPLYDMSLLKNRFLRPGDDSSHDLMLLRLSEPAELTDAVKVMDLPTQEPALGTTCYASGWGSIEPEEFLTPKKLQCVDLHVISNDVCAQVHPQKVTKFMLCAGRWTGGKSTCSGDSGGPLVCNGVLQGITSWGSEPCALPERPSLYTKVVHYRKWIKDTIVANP

ATTAAAGCTCGCCATCAAATAGC (ssDNA, 5'-NH2-C6) [PSA aptamer (NH2-C6)]
binding result: binds

From paper PMC9572316, “Ultrathin Covalent Organic Framework Nanosheets/Ti3C2Tx-Based Photoelectrochemical Biosensor for Efficient Detection of Prostate-Specific Antigen”
